Reference: patent US20190241648A1 (STATEN BIOTECHNOLOGY B V, published 2019)
Ends that are not written are not given here.

Assays:
Experiment in all cases: peptide microarray
ApoC3 peptide … E70V = target: T1, ApoC3 peptide … E70V (human, cyclic constrained)
T1 peptide: DKFSEFWDLDPVV
Method in brief: (§1)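 ApoC3 peptide microarrays incubated with antibody samples and then stained with goat anti-human IgG (Fc) DyLight680 plus anti-HA DyLight800 control antibody. Scanned at intensity 7/7 (red/green); a secondary-only prestain checked for background, and framing HA peptides served as quality control.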

ApoC3 peptide … D59R = target: T2, ApoC3 peptide … D59R (human, cyclic constrained)
T2 peptide: RKFSEFWDLDPEV
Method in brief: as §1

ApoC3 peptide … K60W = target: T3, ApoC3 peptide … K60W (human, not fully specified (bridges); also: cyclic constrained)
T3 peptide: DWFSEFWDLDPEV
Method in brief: as §1

ApoC3 peptide … E63A = ApoC3 peptide … E63A (human, cyclic constrained)
Method in brief: as §1

ApoC3 peptide … D66I = target: T4, ApoC3 peptide … D66I (human, not fully specified (bridges); also: cyclic constrained)
T4 peptide: DKFSEFWILDPEV
Method in brief: as §1

ApoC3 peptide … D68M = target: T5, ApoC3 peptide … D68M (human, cyclic constrained)
T5 peptide: DKFSEFWDLMPEV
Method in brief: as §1

ApoC3 peptide … K60R = target: T6, ApoC3 peptide … K60R (human, not fully specified (bridges); also: cyclic constrained)
T6 peptide: DRFSEFWDLDPEV
Method in brief: as §1

ApoC3 peptide … E70D = ApoC3 peptide … E70D (human, cyclic constrained)
Method in brief: as §1

ApoC3 peptide … P69D = target: T7, ApoC3 peptide … P69D (human, not fully specified (bridges); also: cyclic constrained)
T7 peptide: DKFSEFWDLDDEV
Method in brief: as §1

ApoC3 peptide … L67G = target: T8, ApoC3 peptide … L67G (human, not fully specified (bridges); also: cyclic constrained)
T8 peptide: DKFSEFWDGDPEV
Method in brief: as §1

ApoC3 peptide … V71N = ApoC3 peptide … V71N (human, cyclic constrained)
Method in brief: as §1

ApoC3 peptide … E63I = ApoC3 peptide … E63I (human, cyclic constrained)
Method in brief: as §1

ApoC3 peptide … L67V = target: T9, ApoC3 peptide … L67V (human, not fully specified (bridges); also: cyclic constrained)
T9 peptide: DKFSEFWDVDPEV
Method in brief: as §1

ApoC3 peptide … V71A = ApoC3 peptide … V71A (human, cyclic constrained)
Method in brief: as §1

ApoC3 peptide … E70Q = target: T10, ApoC3 peptide … E70Q (human, not fully specified (bridges); also: cyclic constrained)
T10 peptide: DKFSEFWDLDPQV
Method in brief: as §1

ApoC3 peptide … E63V = ApoC3 peptide … E63V (human, cyclic constrained)
Method in brief: as §1

ApoC3 peptide … L67P = target: T11, ApoC3 peptide … L67P (human, not fully specified (bridges); also: cyclic constrained)
T11 peptide: DKFSEFWDPDPEV
Method in brief: as §1

ApoC3 peptide … V71K = ApoC3 peptide … V71K (human, cyclic constrained)
Method in brief: as §1

ApoC3 peptide … K60N = target: T12, ApoC3 peptide … K60N (human, not fully specified (bridges); also: cyclic constrained)
T12 peptide: DNFSEFWDLDPEV
Method in brief: as §1

ApoC3 peptide … F61H = target: T13, ApoC3 peptide … F61H (human, cyclic constrained)
T13 peptide: DKHSEFWDLDPEV
Method in brief: as §1

ApoC3 peptide … E63Q = ApoC3 peptide … E63Q (human, cyclic constrained)
Method in brief: as §1

ApoC3 peptide … D66M = target: T14, ApoC3 peptide … D66M (human, not fully specified (bridges); also: cyclic constrained)
T14 peptide: DKFSEFWMLDPEV
Method in brief: as §1

ApoC3 peptide … D59L = target: T15, ApoC3 peptide … D59L (human, cyclic constrained)
T15 peptide: LKFSEFWDLDPEV
Method in brief: as §1

ApoC3 peptide … E63K = ApoC3 peptide … E63K (human, cyclic constrained)
Method in brief: as §1

ApoC3 peptide … F61A = target: T16, ApoC3 peptide … F61A (human, cyclic constrained)
T16 peptide: DKASEFWDLDPEV
Method in brief: as §1

ApoC3 peptide … V71W = ApoC3 peptide … V71W (human, cyclic constrained)
Method in brief: as §1

ApoC3 peptide … P69R = ApoC3 peptide … P69R (human, cyclic constrained)
Method in brief: as §1

ApoC3 peptide … P69H = target: T17, ApoC3 peptide … P69H (human, not fully specified (bridges); also: cyclic constrained)
T17 peptide: DKFSEFWDLDHEV
Method in brief: as §1

ApoC3 peptide … S62Y = ApoC3 peptide … S62Y (human, cyclic constrained)
Method in brief: as §1

ApoC3 peptide … D59K = target: T18, ApoC3 peptide … D59K (human, cyclic constrained)
T18 peptide: KKFSEFWDLDPEV
Method in brief: as §1

ApoC3 peptide … K60V = target: T19, ApoC3 peptide … K60V (human, not fully specified (bridges); also: cyclic constrained)
T19 peptide: DVFSEFWDLDPEV
Method in brief: as §1

ApoC3 peptide … L67K = target: T20, ApoC3 peptide … L67K (human, not fully specified (bridges); also: cyclic constrained)
T20 peptide: DKFSEFWDKDPEV
Method in brief: as §1

ApoC3 peptide … W65M = target: T21, ApoC3 peptide … W65M (human, not fully specified (bridges); also: cyclic constrained, ring type and places not given here)
T21 peptide: DKFSEFMDLDPEV
Method in brief: as §1

ApoC3 peptide … V71H = ApoC3 peptide … V71H (human, cyclic constrained)
Method in brief: as §1

ApoC3 peptide … D59F = target: T22, ApoC3 peptide … D59F (human, not fully specified (bridges); also: cyclic constrained)
T22 peptide: FKFSEFWDLDPEV
Method in brief: as §1

ApoC3 peptide … S62K = ApoC3 peptide … S62K (human, cyclic constrained)
Method in brief: as §1

ApoC3 peptide … F64E = target: T23, ApoC3 peptide … F64E (human, not fully specified (bridges); also: cyclic constrained)
T23 peptide: DKFSEEWDLDPEV
Method in brief: as §1

ApoC3 peptide … D66T = target: T24, ApoC3 peptide … D66T (human, not fully specified (bridges); also: cyclic constrained)
T24 peptide: DKFSEFWTLDPEV
Method in brief: as §1

B1: anti-ApoC3 antibody 6A6 (antibody, V domains shown)
VH: EVQLVESGGGLVQPGGSLRLSCAASGFTFSSYAGRWVRQVPGKGLEWVSSINAGGGSTSYADSVKGRFTISRDNAKNTLYLQMNSLKPEDTAKYYCTQNSYRYWGQGTRVAVSS
VL: DVVLTQTPGSLSVVPGESASISCKASQSLIHTDGKTYLYWLLQKPGQRPQLLIYQVSSHESGVPDRFTGSGSGTDFTLKISGVKAEDAGVYYCAQATYNPRTFGQGTKLEIK
notes: it was detected with goat anti-human IgG (Fc); also called mAb 6A6; llama antibody 6A6
% of binding to wild-type peptide (ApoC3 peptide … E70V): 0.27% | % of binding to wild-type peptide (ApoC3 peptide … D59R): 70.2% | % of binding to wild-type peptide (ApoC3 peptide … K60W): 78.6% | % of binding to wild-type peptide (ApoC3 peptide … E63A): 36.7% | % of binding to wild-type peptide (ApoC3 peptide … D66I): 0% | % of binding to wild-type peptide (ApoC3 peptide … D68M): 0% | % of binding to wild-type peptide (ApoC3 peptide … K60R): 105% | % of binding to wild-type peptide (ApoC3 peptide … E70D): 13.8% | % of binding to wild-type peptide (ApoC3 peptide … P69D): 98.5% | % of binding to wild-type peptide (ApoC3 peptide … L67G): 0.6% | % of binding to wild-type peptide (ApoC3 peptide … V71N): 98.7% | % of binding to wild-type peptide (ApoC3 peptide … E63I): 8.76% | % of binding to wild-type peptide (ApoC3 peptide … L67V): 56.5% | % of binding to wild-type peptide (ApoC3 peptide … V71A): 85.2% | % of binding to wild-type peptide (ApoC3 peptide … E70Q): 2.1% | % of binding to wild-type peptide (ApoC3 peptide … E63V): 13% | % of binding to wild-type peptide (ApoC3 peptide … L67P): 0% | % of binding to wild-type peptide (ApoC3 peptide … V71K): 58.7% | % of binding to wild-type peptide (ApoC3 peptide … K60N): 139% | % of binding to wild-type peptide (ApoC3 peptide … F61H): 44.2% | % of binding to wild-type peptide (ApoC3 peptide … E63Q): 46.3% | % of binding to wild-type peptide (ApoC3 peptide … D66M): 0.08% | % of binding to wild-type peptide (ApoC3 peptide … D59L): 68.6% | % of binding to wild-type peptide (ApoC3 peptide … E63K): 7.9% | % of binding to wild-type peptide (ApoC3 peptide … F61A): 41.1% | % of binding to wild-type peptide (ApoC3 peptide … V71W): 59.2% | % of binding to wild-type peptide (ApoC3 peptide … P69R): 17.4% | % of binding to wild-type peptide (ApoC3 peptide … P69H): 19.2% | % of binding to wild-type peptide (ApoC3 peptide … S62Y): 16.3% | % of binding to wild-type peptide (ApoC3 peptide … D59K): 45.6% | % of binding to wild-type peptide (ApoC3 peptide … K60V): 106% | % of binding to wild-type peptide (ApoC3 peptide … L67K): 25.8% | % of binding to wild-type peptide (ApoC3 peptide … W65M): 19.1% | % of binding to wild-type peptide (ApoC3 peptide … V71H): 75.9% | % of binding to wild-type peptide (ApoC3 peptide … D59F): 61.5% | % of binding to wild-type peptide (ApoC3 peptide … S62K): 11.1% | % of binding to wild-type peptide (ApoC3 peptide … F64E): 236% | % of binding to wild-type peptide (ApoC3 peptide … D66T): 0%
